Assay results: CN117069840A (BEIJING BIOSYSTEMS BIOLOGICAL TECH CO LTD, dated 2023)

What was measured:
Assay in all cases: indirect ELISA, antigen coated at 1 μg/mL, hybridoma supernatant, HRP-anti-mouse IgG
人源TNF-alpha蛋白 = biological target: T1, 人源TNF-alpha蛋白 (human, UniProt P01375 77-233)
T1 construct: also called TNF-α

人源IL-10蛋白 = 人源IL-10蛋白 (human, UniProt P22301 19-178)
人源GM-CSF蛋白 = 人源GM-CSF蛋白 (human, UniProt P04141 18-144)
人源IL-7蛋白 = biological target: T2, 人源IL-7蛋白 (human, UniProt P13232 26-177)
T2 sequence (looked up): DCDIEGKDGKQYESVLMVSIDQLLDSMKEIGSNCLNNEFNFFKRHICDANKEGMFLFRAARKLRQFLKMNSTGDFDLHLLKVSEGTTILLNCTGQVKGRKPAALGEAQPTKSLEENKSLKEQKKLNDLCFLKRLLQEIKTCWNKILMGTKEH

人源IL-6蛋白 = 人源IL-6蛋白 (human, UniProt P05231 30-212)
人源IL-15蛋白 = 人源IL-15蛋白 (human, UniProt P40933 49-162)
Chain of 人源IL-15蛋白 (P40933 49-162 limits assumed): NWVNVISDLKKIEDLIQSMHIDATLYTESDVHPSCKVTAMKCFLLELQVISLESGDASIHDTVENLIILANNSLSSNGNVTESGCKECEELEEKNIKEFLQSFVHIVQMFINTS

人源IL-4蛋白 = biological target: T3, 人源IL-4蛋白 (human, UniProt P05112 25-153)
T3 sequence (looked up): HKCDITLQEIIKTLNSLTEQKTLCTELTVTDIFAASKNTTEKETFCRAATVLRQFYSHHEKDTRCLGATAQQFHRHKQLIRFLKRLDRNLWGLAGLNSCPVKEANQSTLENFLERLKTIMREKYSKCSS

人源IL-2蛋白 = 人源IL-2蛋白 (human, UniProt P60568 21-153)
Chain of 人源IL-2蛋白 (P60568 21-153 limits assumed): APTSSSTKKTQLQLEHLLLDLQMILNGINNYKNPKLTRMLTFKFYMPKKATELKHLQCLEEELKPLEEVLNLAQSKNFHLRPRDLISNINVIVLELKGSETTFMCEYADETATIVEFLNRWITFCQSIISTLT

Measured: binding result

T1 sequence (P01375 77-233 limits assumed): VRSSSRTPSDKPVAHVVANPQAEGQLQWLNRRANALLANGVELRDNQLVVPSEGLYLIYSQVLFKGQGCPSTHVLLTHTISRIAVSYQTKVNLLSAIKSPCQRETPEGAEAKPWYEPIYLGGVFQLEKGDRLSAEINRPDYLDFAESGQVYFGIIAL
Chain of 人源IL-10蛋白 (P22301 19-178 limits assumed): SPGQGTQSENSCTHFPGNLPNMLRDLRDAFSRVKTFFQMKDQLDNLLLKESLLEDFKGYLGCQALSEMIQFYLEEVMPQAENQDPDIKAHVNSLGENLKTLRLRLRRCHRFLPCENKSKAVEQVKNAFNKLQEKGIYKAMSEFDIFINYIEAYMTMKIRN
Chain of 人源GM-CSF蛋白 (P04141 18-144 limits assumed): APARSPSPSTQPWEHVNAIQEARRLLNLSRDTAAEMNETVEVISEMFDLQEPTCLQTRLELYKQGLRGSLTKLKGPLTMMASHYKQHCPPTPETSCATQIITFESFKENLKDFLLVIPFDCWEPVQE

B1: 抗体3G6D7 (antibody, V domains shown)
VH: EIQLQQSGPELVKPGASVKVSCKASGYGFTSYNMNWVKQSHGKSLEWIGYIDPYNGGSGYNQKFKGKATLTVDKSSSTAYMHLISLTSDDSAVYYCARGDYDGGYYGMDYWGQGTSVTVSS
VL: DILLTQSPAILSVSPGESVSFSCRASQSVGTSIHWFQQRTNGSPRLLIKYASESISGIPSRFSGSGSGTDFTLIINSVESEDIADYYCQQSNGWPFTFGSGTKLEIK
notes: Mouse monoclonal antibody from a hybridoma; also called Clone 3G6D7; 克隆号3G6D7
no binding: 人源TNF-alpha蛋白 | 人源IL-10蛋白 | 人源GM-CSF蛋白 | 人源IL-7蛋白 | 人源IL-6蛋白 | 人源IL-15蛋白 | 人源IL-4蛋白 | 人源IL-2蛋白

B2: 抗体13A6G6 (antibody, V domains shown)
VH: EVKLEESGGGLVQPGGSTKLSCAASGFTFSDAWMNWVRQSPEKGLEWIAEIRTKTSNHAAYYAASVKGRFTISRDDSKSSVYLQMNSLRPEDTGIYYCTRFDYWGQGTTLTVSS
VL: DVQITQSPSYLAASPGETITINCRASKNINKHLAWYHDKPGKTNKLLIYSGSTLQSGTPSRFSGSGSGTDFTLTISSLEPEDFAVYYCQQHNEYPYTFGGGTKLAIK
notes: Mouse monoclonal antibody from a hybridoma; also called Clone 13A6G6; 克隆号13A6G6
no binding: 人源TNF-alpha蛋白 | 人源IL-10蛋白 | 人源GM-CSF蛋白 | 人源IL-7蛋白 | 人源IL-6蛋白 | 人源IL-15蛋白 | 人源IL-4蛋白 | 人源IL-2蛋白
